Source: patent publication US7119182 (University of California, dated 2006)
Square brackets hold non-standard residues; d marks the D form. Ends that are not written are not given here. * marks the point of attachment. SMeMpr = S-methyl-3-mercaptopropionic acid, CSCCC(=O)*; 2‑Mba = 2-mercaptobenzoic acid, O=C(c1ccccc1S)*; Cha = N[C@@H](CC1CCCCC1)C(=O)O; Mpa = O=C(O)CCS

T1: human thrombin receptor (human, UniProt P25116 42-425)
T1 chain: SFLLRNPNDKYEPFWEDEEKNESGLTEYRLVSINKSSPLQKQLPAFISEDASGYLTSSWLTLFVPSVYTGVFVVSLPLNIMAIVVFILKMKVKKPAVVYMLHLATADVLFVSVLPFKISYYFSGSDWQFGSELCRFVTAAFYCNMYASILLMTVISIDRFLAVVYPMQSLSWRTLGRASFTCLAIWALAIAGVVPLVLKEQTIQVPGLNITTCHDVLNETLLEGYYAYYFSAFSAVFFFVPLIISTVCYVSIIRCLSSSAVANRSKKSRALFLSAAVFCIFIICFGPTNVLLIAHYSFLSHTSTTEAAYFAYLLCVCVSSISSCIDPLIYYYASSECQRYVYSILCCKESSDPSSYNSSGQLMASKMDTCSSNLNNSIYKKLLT

T2: mutant thrombin receptor with the amino acid substitution R41A (human, UniProt P25116 22-425, limits assumed)
T2 chain: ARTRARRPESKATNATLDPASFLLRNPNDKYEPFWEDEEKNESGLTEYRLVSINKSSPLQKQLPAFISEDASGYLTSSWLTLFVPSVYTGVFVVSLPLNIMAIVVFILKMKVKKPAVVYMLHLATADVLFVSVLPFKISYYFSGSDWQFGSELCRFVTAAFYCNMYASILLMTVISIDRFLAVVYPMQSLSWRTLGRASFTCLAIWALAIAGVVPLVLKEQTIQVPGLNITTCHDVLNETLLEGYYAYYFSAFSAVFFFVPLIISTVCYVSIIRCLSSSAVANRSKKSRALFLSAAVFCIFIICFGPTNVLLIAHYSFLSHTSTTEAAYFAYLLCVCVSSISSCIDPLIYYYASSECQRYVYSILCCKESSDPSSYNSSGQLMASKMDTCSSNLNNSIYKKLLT


Assays:
Test in all cases: cell-based or functional assay
[1] = target: T1, human thrombin receptor
[2] = target: thrombin (UniProt P00734 364-622; P00734 328-363)
[3] = target: T1, human thrombin receptor
[4] = target: T2, mutant thrombin receptor with the amino …

Binder	IC50 (50% inhibition of thrombin-induced platelet activation or aggregation) [1] [µM]	further results
LDPRPFLLRNPNDKYEPFWEDEEKNES		IC50, inhibition of thrombin-induced platelet ATP secretion (peptide preincubated with thrombin) [2]: ~0.5 µM
LDPRPFLL		IC50, inhibition of thrombin-induced platelet ATP secretion (peptide preincubated with thrombin) [2]: ~200 µM
{Cam‑Mpr}-FLLR-NH2 [[Cam-Mpr]-FLLR-NH2]	1000	
{2‑Mba}-F[Cha][Cha]RKPNDK-NH2 (SMILES N=C(N)NCCC[C@H](NC(=O)[C@H](CC1CCCCC1)NC(=O)[C@H](CC1CCCCC1)NC(=O)[C@H](Cc1ccccc1)NC(=O)c1ccccc1S)C(=O)N[C@@H](CCCCN)C(=O)N1CCC[C@H]1C(=O)N[C@@H](CC(N)=O)C(=O)N[C@@H](CC(=O)O)C(=O)N[C@@H](CCCCN)C(N)=O) [(2-Mba)-F(Cha)(Cha)RKPNDK-NH2]	50	
SMeMpr-F[Cha][Cha]RKPNDK-NH2 (SMILES CSCCC(=O)N[C@@H](Cc1ccccc1)C(=O)N[C@@H](CC1CCCCC1)C(=O)N[C@@H](CC1CCCCC1)C(=O)N[C@@H](CCCNC(=N)N)C(=O)N[C@@H](CCCCN)C(=O)N1CCC[C@H]1C(=O)N[C@@H](CC(N)=O)C(=O)N[C@@H](CC(=O)O)C(=O)N[C@@H](CCCCN)C(N)=O) [(SMeMpr)-F(Cha)(Cha)RKPNDK-NH2]	10	
SFLLRNPNDKYEPF ["new amino-terminal" peptide SFLLRNPNDKYEPF]		Fold increase in 45Ca (release by oocytes expressing receptor cRNA); “SFLL” peptide 40 µM [3]: 32 fold; Fold increase in 45Ca (release by oocytes expressing receptor cRNA); “SFLL” peptide 200 µM [3]: 42 fold; Fold increase in 45Ca (release by oocytes expressing receptor cRNA); “SFLL” peptide 200 µM [4]: 53 fold

Further lines, with some results ahead:

IC50 (50% inhibition of thrombin-induced platelet activation or aggregation) [1] [µM]	Binder	further results
1000	Pivaloyl-FLLR-NH2 [Pivaloyl-FLLR-NH2]	
50	[Mpa]F[Cha][Cha]RKPNDA-NH2 (SMILES C[C@H](NC(=O)[C@H](CC(=O)O)NC(=O)[C@H](CC(N)=O)NC(=O)[C@@H]1CCCN1C(=O)[C@H](CCCCN)NC(=O)[C@H](CCCNC(=N)N)NC(=O)[C@H](CC1CCCCC1)NC(=O)[C@H](CC1CCCCC1)NC(=O)[C@H](Cc1ccccc1)NC(=O)CCS)C(N)=O) [Mpr-F(Cha) (Cha)RKPNDA-NH2]	
108	[Mpa]FLLRNPNDKYE-NH2 (SMILES CC(C)C[C@H](NC(=O)[C@H](Cc1ccccc1)NC(=O)CCS)C(=O)N[C@@H](CC(C)C)C(=O)N[C@@H](CCCNC(=N)N)C(=O)N[C@@H](CC(N)=O)C(=O)N1CCC[C@H]1C(=O)N[C@@H](CC(N)=O)C(=O)N[C@@H](CC(=O)O)C(=O)N[C@@H](CCCCN)C(=O)N[C@@H](Cc1ccc(O)cc1)C(=O)N[C@@H](CCC(=O)O)C(N)=O) [Mpr-FLLRNPNDKYE-NH2]	
80	[Mpa]FLLRNPNDK [Mpr-FLLRNPNDK]	
